Assay results taken from US20230183379A1.

Biological target: human IL-6 (human) (UniProt P05231)
Assay: cell-based or functional assay

Chain of human IL-6 (human) (P05231 30-212 limits assumed): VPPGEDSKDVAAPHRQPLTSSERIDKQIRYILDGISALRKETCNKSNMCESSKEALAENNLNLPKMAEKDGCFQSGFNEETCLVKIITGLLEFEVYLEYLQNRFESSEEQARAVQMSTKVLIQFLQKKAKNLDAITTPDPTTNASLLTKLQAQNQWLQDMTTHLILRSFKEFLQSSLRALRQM

inhibition of growth of XG6 cells in 40 pM IL-6, IC50: 3 nM
inhibition of growth of XG7 cells in 40 pM IL-6, IC50: 6 nM
B1: BE8 (mouse monoclonal anti-IL6 neutralizing antibody) (antibody, from another filing, V domains shown)
VH: QVTLKESGPGILKPSQTLSLTCSFSGFSLSTSGMGVGWIRQPSGKGLEWLAHIWWDDDKYYNPSLKSQLTISKDTSRNQVFLKITSVDTADTATYYCARSYDDYLYYALDYWGQGTSVTVSS
VL: DIVMTQSPATLSVTPGDRVSLSCRASQSISDYLHWYQQKSHESPRLLIKSVSQSISGIPSRFSGSGSGSDFTLSINSVEPEDVGVYYCQNGHSFPLTFGAGTKLELK
